B1: β-III-spectrin actin-binding domain Y272H (domain or fragment)
chain: MSSTLSPTDFDSLEIQGQYSDINNRWDLPDSDWDNDSSSARLFERSRIKALADEREAVQKKTFTKWVNSHLARVTCRVGDLYSDLRDGRNLLRLLEVLSGEILPKPTKGRMRIHCLENVDKALQFLKEQKVHLENMGSHDIVDGNHRLTLGLVWTIILRFQIQDISVETEDNKEKKSAKDALLLWCQMKTAGYPNVNVHNFTTSWRDGLAFNAIVHKHRPDLLDFESLKKCNAHYNLQNAFNLAEKELGLTKLLDPEDVNVDQPDEKSIITHVATYYHYFSKMK
notes: mutation found in a patient and a parent; also called Y272H ABD; source: Rosetta 2 (DE3) E. coli, purified (Ni-NTA, tag cleaved with Ulp1, second Ni-NTA)
B2: β-III-spectrin actin-binding domain, wild-type (domain or fragment)
chain: B1 chain with H272Y
notes: Construct pE-SUMO-ABD WT; also called ABD WT; wild-type ABD; source: Rosetta 2 (DE3) E. coli, purified (Ni-NTA, tag cleaved with Ulp1, second Ni-NTA)
B3: β-III-spectrin actin-binding domain T271I (domain or fragment)
chain: B1 chain with T271I, H272Y
notes: mutation found in a patient; also called T271I ABD; source: Rosetta 2 (DE3) E. coli, purified (Ni-NTA, tag cleaved with Ulp1, second Ni-NTA)
B4: β-III-spectrin actin-binding domain H278R (domain or fragment)
chain: B1 chain with H272Y, H278R
notes: mutation found in a patient; also called H278R ABD; source: Rosetta 2 (DE3) E. coli, purified (Ni-NTA, tag cleaved with Ulp1, second Ni-NTA)
B5: β-III-spectrin actin-binding domain L253P (domain or fragment)
chain: B1 chain with L253P, H272Y
notes: Construct pE-SUMO-ABD-L253P; Mutation found in SCA5 patients; also called L253P ABD; source: Rosetta 2 (DE3) E. coli, purified (Ni-NTA, tag cleaved with Ulp1, second Ni-NTA)
B6: β-III-spectrin actin-binding domain K61E (domain or fragment)
chain: B1 chain with K61E, H272Y
notes: mutation found in a patient; also called K61E ABD; source: Rosetta 2 (DE3) E. coli, purified (Ni-NTA, tag cleaved with Ulp1, second Ni-NTA)
B7: β-III-spectrin actin-binding domain D255G (domain or fragment)
chain: B1 chain with D255G, H272Y
notes: mutation found in a patient; also called D255G ABD; source: Rosetta 2 (DE3) E. coli, purified (Ni-NTA, tag cleaved with Ulp1, second Ni-NTA)
B8: β-III-spectrin actin-binding domain F160C (domain or fragment)
chain: B1 chain with F160C, H272Y
notes: mutation found in a patient; The methods paragraph prints F16C, everywhere else F160C; also called F160C ABD; F16C (as printed in the methods); source: Rosetta 2 (DE3) E. coli, purified (Ni-NTA, tag cleaved with Ulp1, second Ni-NTA)
B9: β-III-spectrin actin-binding domain T62I (domain or fragment)
chain: B1 chain with T62I, H272Y
notes: mutation found in a patient; also called T62I ABD; source: Rosetta 2 (DE3) E. coli, purified (Ni-NTA, tag cleaved with Ulp1, second Ni-NTA)
B10: β-III-spectrin actin-binding domain K65E (domain or fragment)
chain: B1 chain with K65E, H272Y
notes: mutation found in a patient; also called K65E ABD; source: Rosetta 2 (DE3) E. coli, purified (Ni-NTA, tag cleaved with Ulp1, second Ni-NTA)
B11: β-III-spectrin actin-binding domain V58M (domain or fragment)
chain: B1 chain with V58M, H272Y
notes: mutation found in a patient; also called V58M ABD; source: Rosetta 2 (DE3) E. coli, purified (Ni-NTA, tag cleaved with Ulp1, second Ni-NTA)

Numbering of substitutions follows the chain as printed. In names and notes the source's numbering stands.

In the first experiment the target is T1, F-actin from rabbit skeletal muscle (rabbit, UniProt P68135 1-377). Briefly: co-sedimentation; 2 µM ABD protein with increasing F-actin (3-120 µM) in F-buffer (10 mM Tris pH 7.5, 150 mM NaCl, 0.5 mM ATP, 2 mM MgCl2, 1 mM DTT); 30 min at room temperature; 50,000 RPM 30 min 25 °C; ABD left in supernatant quantified by SDS-PAGE and Coomassie; one-site fit with Bmax constrained to 1. To be noted: both partners purified.
On to B1, for which binding was characterised by a dissociation constant (Kd) of 15.5 µM.

The next experiment has as its target T1, F-actin from rabbit skeletal muscle. The description is as above. To be noted: both partners purified. The source holds these as a separate data set.
Regarding B2, binding was characterised by a dissociation constant (Kd) of 55.2 µM.
Still for that read-out and setting: to B3 belongs < 1 µM; to B4, 6.7 µM.
Still for that read-out and setting: in the case of B5 it was < 1 µM; in that of B6, < 1 µM; in that of B7, 7.3 µM.
Same read-out and setting: to B8 belongs < 1 µM; to B9, 2.4 µM.
Consider B10, for which the dissociation constant Kd (commonly the concentration at which binding is half-saturated) was < 1 µM.
Still for that read-out and setting: to B11 belongs 10.2 µM; to B1, 15.3 µM.
